Sequences and labels used below:
B1: TPR t1 (parent)
chain: GACCAAUCUGCCCUCAGAGCUCGAGAACAUCUUCGGAUGCAGAGGAGGCAGGCUUCGGUGGCGCGAUAGCGCCAACGUCCUCAACCUCCAAUGCAUCCCACCACAUGAUGAUGCCUGAAGAGCCUUGGUUUUUUG

In this data set the parent is B1. Kind of data set: polymerase ribozyme fitness, log enrichment relative to wild type (log ratio); higher = more active; in vitro selection for triplet polymerase activity. In short, it runs like this: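 A single round of triplicate in vitro selection, including frozen incubation at −7 °C, was applied to PCR-built, transcribed mutant libraries of each subunit of a heterodimeric triplet polymerase ribozyme. Illumina sequencing of input and output libraries retained genotypes with ≥10 input reads and ≥1 read per output. Fitness is the base-2 logarithm of genotype enrichment divided by wild-type enrichment, from inverse-variance-weighted replicate averages.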
Consider C40U C115A G128A, for which the “polymerase ribozyme fitness (log ratio)” value is -2.68. The same measure for C40U A50U G51A C82A C85U: -4.25; for C40U G71U U92A: -5.4; for C40U C56U A90U: -2.08. With A41G A66G the figure was -1.87. The same measure for C40U G117A: -1.87; for C40U C70A: -1.93.

With A41G A90G, the “polymerase ribozyme fitness (log ratio)” value is 0.631. With C40U A50U, the “polymerase ribozyme fitness (log ratio)” value was -4.47. Turning to C40U A50G, the “polymerase ribozyme fitness (log ratio)” value was -0.548. With C40G G61A C104A U106C the figure was -1.7; with A41C C64A A90G, -4.74; with C40G G52A U78A C101A G120U, -2. For the variant C40U G45U G63U U78C, the “polymerase ribozyme fitness (log ratio)” value is -4.36. The same measure for C40U G120C: 0.116. With A41C C72A the figure was -2.08; with A41G C56A C102U, -3.9; with C40U G48C, -1.59. C40G C72U G93A: the “polymerase ribozyme fitness (log ratio)” value is -0.859. C40U A121U: the “polymerase ribozyme fitness (log ratio)” value came out at 1.68. With C40G G69A A84C, the “polymerase ribozyme fitness (log ratio)” value is -3.83. The same measure for A41C G45U C124A U126G: -1.66; for C40U C49A C94U G117C: -5.09. For A41C G61C G93C, the “polymerase ribozyme fitness (log ratio)” value was -4.23. Take C40U C70U A84G: the “polymerase ribozyme fitness (log ratio)” value is -2.34. The same measure for C40G C72U: -1.47. Take A41C A46G U109A: the “polymerase ribozyme fitness (log ratio)” value is -7.53. Turning to A41C C70U G71C G117U C123A G128A, the “polymerase ribozyme fitness (log ratio)” value is -6.8.

Take C40U G60C: the “polymerase ribozyme fitness (log ratio)” value is -0.857. The same measure for C40U A95G: -1.37; for C40G G47U A74U: -4.86; for C40U C64U: -0.45. With C40U G113A the figure was -1.41; with C40U U116G, -2.61; with C40G U132A, -0.821. With A41G G57A G77U C123A G128C the figure was -2.56; with C40U C88U, -0.588. As to A41C G117C, the “polymerase ribozyme fitness (log ratio)” value was -4.47. As to C40U C53U G61C U131A, the “polymerase ribozyme fitness (log ratio)” value is -0.765. The same measure for C40G G69C: -2.54. With C40G G69A the figure was -3.43; with C40G C124A, 1.16; with A41G C53U G77A A108G, -2.63.

For C40U G61C C88A, the “polymerase ribozyme fitness (log ratio)” value was -2.87. With C40G C115A G120C G122U the figure was -1.41; with C40G A46C G51U C62U U87G C115G, -6.61; with A41C G117C A121C, -6.19. C40G U78C: the “polymerase ribozyme fitness (log ratio)” value was -1.4. On to C40U C88A C114G, for which the “polymerase ribozyme fitness (log ratio)” value is -2.99.

C40U C62U A95G: the “polymerase ribozyme fitness (log ratio)” value is -0.773. The same measure for C40U A46U G47A C53G A66C G117C: -7.17; for A41C G52A C82G C97U C101G A118U A121U: -2.61; for C40U G60U U131G: -0.956.

Regarding C40G C53A C70U C115G U125A, the “polymerase ribozyme fitness (log ratio)” value is -3.58. The same measure for C40A U131A: -1.11; for A41C G69U: -0.161. For the variant C40U G107C U109A, the “polymerase ribozyme fitness (log ratio)” value was -6.59.

For C40G C86U A100U, the “polymerase ribozyme fitness (log ratio)” value was -3.33. As for C40U C62G, the “polymerase ribozyme fitness (log ratio)” value is -3.29. With C40U A105C the figure was -3.68. With A41G G44C G63A C102U C124A G128A the figure was -4.69; with C40U G44A U125A, -1.32. With C40U G71A U78G C123G U125C the figure was -1.36; with C40G G71A, -1.91. In the case of C40G G52A A118U, the “polymerase ribozyme fitness (log ratio)” value was -0.83.

In the case of C40G C70U U106A U116A G120C, the “polymerase ribozyme fitness (log ratio)” value was -2.18.

Consider C40U C53U, for which the “polymerase ribozyme fitness (log ratio)” value was -0.572. Turning to C40G G60U C104A, the “polymerase ribozyme fitness (log ratio)” value is -1.87. The same measure for C40G G44U G63C C85U: -5.9; for C40G G69U U92A G93A C94G A119G: -0.914; for A41C G69U U112C: 0.865.

With C40G G52U, the “polymerase ribozyme fitness (log ratio)” value is -2.76. Turning to A41C G113C C124U, the “polymerase ribozyme fitness (log ratio)” value was -3.22. In the case of A41C G113A C124G, the “polymerase ribozyme fitness (log ratio)” value is -1.49. As for C40U A68U A74U C97U C102A A111G, the “polymerase ribozyme fitness (log ratio)” value is -7.15. The same measure for C40U G48C C82A: -1.94; for C40G G120U: -0.437. With C40G G120A the figure was 0.215; with A41C C80G A121G U132A, -4.51; with C40G U55G, -0.761.

For A41G C53A C64A A121G, the “polymerase ribozyme fitness (log ratio)” value is -4.97.

Take C40G C86U C101A: the “polymerase ribozyme fitness (log ratio)” value is -2.66. Take A41C C56U C94A: the “polymerase ribozyme fitness (log ratio)” value was -3.

The values are drawn from the RNAGym collection of RNA variant scans (doi:10.1073/pnas.2313332121).
